Drawing on paper PMC9884274, this text covers stoichiometry N for one substance.

The target of this assay is WT Atezolizumab scFv-His6, purified. In words: mass photometry; Refeyn TwoMP, room temperature, 1X PBS; PD-L1 at 7.4, 18.5 and 74 nM; each scFv at 100 nM.

A word on the stoichiometry N: it is the number of molecules, sites or subunits per partner or assembly. Substance WT Atezolizumab scFv-His6, purified had a stoichiometry N of 2.
